Experiments:
[1] = target: CD3 on Jurkat cells (human) (UniProt P07766); test: binding to Jurkat cells (data not shown; Scatchard assay presumed)
[2] = target: human epidermal growth factor receptor 2 (HER2) on cells (human) (UniProt P04626); test: competitive Scatchard analysis, 125I-trastuzumab Fab tracer on SKBR-3 cells

“HER2 T cell dependent bispecific antibody (HER2-TDB), huIgG1, knob arm humanized anti-HER2 4D5 (trastuzumab), hole arm humanized anti-CD3 UCHT1.v9” gave a Kd [1] of 4.7 nM and a Kd [2] of 5.4 nM.

Reference: patent publication US20170008971A1
